This note sets out measurements from a protein production outcome set (Wang et al. 2014).
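Further: failed if final PepcDB status was selected cloned or expressed and not failed if soluble or beyond.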

This data set can be described thus: label from the status in PepcDB records.
Turning to “MLKKLAGALRTLMSVPADNPRLLEAQYVALSRQLPLMYFVLLVNTWALAFTHRETAPVWLTLLVPVLLTVICGIRARKWLLTVNRPPPAAATILATLRGTNSLAGVIAAGFAAWSLSLYPYGGPYAQAHVAFFMGITVIVCIFCMMHLRPAALTTAVVVNTAFVIFFASTHNLIFIATAVNIVLVSIGMLIILHHQYRDFTSLVDVQVRTEQLSNENLLLANKDSLTGLPNRRQFFQTLDAAMSEALALRSKLAVGVLDLDGFKPVNDLYGHRTGDRLLMLVAERLNSVASNTVHVSRLGGDEFALVIKGDISNEALLALGKHLCDLMHESFELSDMPIQIGATLGMATFPASADNATQLFEFADYALYQGKNHNPGTTCLFSASHREQLHTDGVTEQALRRANLETEFHVMFQPIIESCTCETVAFEALARWNSPELGAVSPAHFIPIAERIGMINKLTAPLLTHALQMALSWPAPIRLSFNLSAHDCATWESVSTIVEIIENSGFDASRLDLEITETAVMQDIAQVQQAIAQFRQLGCGISLDDFGTGFSSLSQLHALALTKLKIDRSFVTGVHDNPASYKIVKSLVALSLDMSLGCVIEGVETQDELNALTSLGCTMVQGYFYSPPISFAETLAWLETPDHERAFGYAAACRI”, the protein production entry is given as “failed”.

In the case of “MLKKMLKSYDYSLIFAIVLLCGFGLVMVYSSSMITAVSRYGVSSNFFFMRQLFALIAGGALFILMALFPYKALAHQKFQKGILLVSVLALISLFVFGHVAGNAQSWFKIGGMSIQPGEFVKLVVILYLAAVYAKKQSYIDHLLTGVAPPVVMTLIICGLIAMQPDFGTAMIIGLIATCMILCSGFSGKTLVRLVILGGIVFILVSPIIYLNQDKILTEGRLARFESLEDPFKYANSSGLQVINSYYAISSGGIFGLGLGESIQKYGYLPESHTDFIMAVIAEELGIFGVLFVIFLLGFVVIKGFYIARKCEDPFGSLLAIGISSMIAIQSFINLGGVSGLIPITGVTLPFISYGGSSLVLLLGSMGILANISMFVKYSENKKKKEPLAPKGMKKKQLKKTVYL”, the protein production result was “failed”.

Take “MLKLFAKYTSIGVLNTLIHWVVFGVCIYVAHTNQALANFAGFVVAVSFSFFANAKFTFKASTTTMRYMLYVGFMGTLSATVGWAADRCALPPMITLVTFSAISLVCGFVYSKFIVFRDAK”: the protein production result is reported as “failed”.

For the sequence “MLKLTATKQTSQQRSLKMNTLTKLLAATMTLSAQAMAATPLTLDVYNADGNSFHVNATVVYGETEAMVVDTGFTKADALRIGAKVLDSGKTLKTIFISQADPDYYFGAEVLKQMFPQAEVIATPGVKAKIEQKLQGKLDFWAPKMGANAPVKPVLPTAYQGKTLEIDGQTIEIRGTEGELKHRPYLWIPANAAILGNVAVYGNVHLWMADAQTDSERKAWAEQLDEMAALKPKVVIPGHMTPGTAMDSSAITFSQKYLADFAKAKASSKNSAQLIEKMSKIYPDAGLPMALEIGAKVHTGEMKW”, the protein production result is on record as “failed”.

Regarding “MLKNHPKGLISASLTNMGERFGFYIMMGILLLFLQAKFGLSGKEASVIYSIFYASVYVLALVGGIIADSMKNYKGTILVGLIVMAAGYVMLGIPTPTQATGMTPWLIFTCAALAFISFGNGLFKGNLQALVGRMYDNDTYRDKRDSGFSLFYMFINVGAVFAPLVAVAIRNWWVQHNGFVYNADLPERCHQILNGTLPENAKAQVMEMIQAANNGTAVATEGLQEFALKYIQVFSTGFHYAFLAAVFFMAISFLIYIINKHQYPADQKANAVTEAHKDQKQEIKMAADEIRQRIIALCAVFGVVIFFWMSFHQNGVSLTQFAKDYIDLSSVKLDLGFTSIVGAEMFQSINPFFVVTLTPLLLFIFGFLKKRNMEPSTPKKIVIGMFIAALAFVVMAIGSMGLPTFEERNAGVEFTKVSPWLMVLTYMILTIAELFISPMGISFVSKVAPPHLQGIMQGLWLCATAVGNSLLFVGMILYESLSISATWIVFTCACALSMLVMLSMVKWLERVAK”, the protein production result is “failed”. Under “MLKQIRPLYLLLYLTPLMFDIILLYTYLDNGIIYWLDSNYPFSPLILLRKILFYYWNDPFFPGAPLFYSQDSLFMGIIIFLLYNIFHFSLELSEFIYLLLFIYLSQVGFVKLLNIIFEILEKRYSSYFTLIAGLLGGFIYSWGFYSYTPPILGVNYPFFIFYMLFPLVLYFSIKYIFKEKVISFSLIILYLILASGTLFSEFTYLLWSIVLYLFTVVPIWLLSRKPSFVQFTVKNLVIALIVIVAGLEQLYQTYNASIGAYQVGVHGEFLGKPIVIYETEAQYKNFPLSSFISLYSPEKYEIIGVLIFVLIFATILFIKGKTGKFFAPLLFLLLIIGGLSTGIINVLPLYSLHSTPIGFIAIGLMYSIQYIFSGFPVSFVSSLIIGYTLLYILEYLGKRRNYIKILFILIILLLSSSYIYSFRAGEVHPEIRAFNLPVNATNIFYPPPELVSVGNYLSVHDEFYNVIEFPMQYAAGMYDNNGTKAVWYTIYPLSDYIMGQVIKSPALANNAIIKSLANSAIYPIYKYFPAFNITNITNYFVLLGAKYIVLNKQEYPGPGVPLGYAGGYPWNYTKFIEALARTPNITLVMENSYYNVYMINLNVSLLYPSEGLAENLSSDQLFFLYANNMLKAQKQSVIYGLGAINITNISGVHIRVVNDYCNEVYEIQVNASRPFYLVFDEGYSPLWEVTINGEINTHHYIANGYANAWLMPAGNYVATLKLSILQTVHITYLLVFLGFIILVLIYVLQRFKIFRYFKNY” stands “failed”; under “MLKQRIITALLLVPVALYGVFMLPLWGFALFIQGVLMLGAWEWSPLMGVRRISARIAYTLFVGAIIGVLSWLAPYEHLWEGGELSKLIYYTILAGGVWWVVALAMIVNYPSSRRMWSRTRAIVGVFGLLIFIPTWAALVTVRSIDIDESRFFGGWVVLFILLLVWAADVGAYFAGVRYGRNKMMPAVSPGKTMEGLCGGVTLAFVVMMVVAHWTKVPADQFTGYYLTGLFTVVASVFGDLNESMFKRSAGVKDSGSILPGHGGILDRIDSLTAAVPIFTLAYLEFLH”, “failed”; under “MLKQRVITAMWLLPLMLGMLFYAPQWLWAAFCGLIALIALWEYARMGGLCKIKTNHYLAATLVFGVVAYAGGWMLPNLVWYVVLAFWLAVMPLWLRFKWRLNGGWQVYAVGWLLVMPFWFALVSLRPHPDDALPLLAVMGLVWVADICAYFSGKAFGKHKIAPAISPGKSWEGAIGGAVCVAVYMTAVRSAGWLAFDTGWFDTVLIGLVLTVVSVCGDLLESWLKRAAGIKDSSKLLPGHGGVFDRTDSLIAVISVYAAMMSVLN”, “failed”.

Regarding “MLKRLSVVHSPNGAPMAPSSHEWTDTLKDVYTARAANADLNARYIPLLPVNQRIQHERDRALANMLRQHLSVPPAQARVLEVGCGSGSNLLDLIRLGFDPANLMGNDLMDSRVEQARHRLPQAVPILAGNALDLDLEREGFDVLYQSTVFTSILDAQARRDLAQRMWHWTKPGGGVLWYDFAYNNPRNPNVRGVPLREVRALFPHARIHTARVTLAPPLARRLPATLYAPVNNLCPFLRTHLLCWIGKPAAP”, the protein production entry is “failed”.

In the case of “MLKRSIRLLTMGIIWFAISVANSTGRAEKSSDLERYLNTIQDPENIDKPFQPLQAGEYDQAYDYYIQGYYLKAFREALRRAEQNDPFAQTLVARIYMEGCAVPIDGARAALWFGRAAKQGEPQAQLRYGLMLFDGNFIAQNQEIGEEFIRKAVDAGVKEAYYYYGQLLLYKASREKQALAGVFSQSQENEAIDQALKWFLKGAALGDAAAAFAAAKILSLGTLTRPKDDRNARKLMEVAAQNKHLEAQILLAQWLVQGRGGETDFQRAFHLLLSNATKMIAPAQVALARLYRDGIGTKGDIVRAAAWYMLAKHAKIQAPDLEMMLEGMDHAQLEEARKEIIKLLPIF”, the protein production entry is listed as “failed”. Under “MLKRTFILIGLVLSFCSLPAQELIQITTRNTALVFRVANQSLRQVYYGPRLADTDVLQKQGNNFPAYSTYGMGEQNEVALHAVHADGNTSTLLNFENVKQESPEPGITLTTISLKDPLYPFQVKLFYKAYEESDLIEQWTIYQHTEKKPVTLYQFASAQLSFKSSSYRLTHFAGDWAGECNMSEVELTEGIKVIDSKLGTRATFFAHPMCLLSLNGRMTEDNGEVIGMALAWPANFKLEFEKNNNQELRVLAGMNPYASHYKLKKGDVFQTPSFLYTYSTKGNGQVSRNFHRWARKYGLRHGENSRYTLMNNWEATYFNFNEPKLKSIIEDAAGMGFELFLLDDGWFGQKHPRNNDDAGLGDWVVNKEKLPNGLGWLVKQCTDNDIKFGIWVEPEMVNPQSELFEKHPDWVIQQPEREHILFRRQLVLDLSNPEVQEFVYKSVHDILKDNPQIAFVKWDCNRAVTNPGSTYLPADEQSHIWIEYGRGLLNVFKKVRDSHPDVHFMLCSGGGGRLDYGSLRYFEEYWPSDNTDALQRILIQWGNSQFFPSIAMCCHVSASPNHQTGRTTPLKFRFDVAMQGALGMDLQPSTMNEKEVIFAKEAIKTYESIRNIVFTGDLYRILSPYEGNRTSMMYVLPDKSRAVFYAYQLKSHIGEVSAPMRFKGLIPDKKYNVKELNIYPGSRAATGSANGQSFSGDFLMNQGLPIGLSGDYSSAVIELEQQ” stands “failed”. Under “MLKSGRLNFLKLNINSRLLYSTNPQLTKKVIGIDLGTTNSAVAYIRDSNDKKSATIIENDEGQRTTPSIVAFDVKSSPQNKDQMKTLVGMAAKRQNAINSENTFFATKRLIGRAFNDKEVQRDMAVMPYKIVKCESNGQAYLSTSNGLIQSPSQIASILLKYLKQTSEEYLGEKVNLAVITVPAYFNDSQRQATKDAGKLAGLNVLRVINEPTAAALSFGIDDKRNNGLIAVYDLGGGTFDISILDIEDGVFEVRATNGDTHLGGEDFDNVIVNYIIDTFIHENPEITREEITKNRETMQRLKDVSERAKIDLSHVKKTFIELPFVYKSKHLRVPMTEEELDNMTLSLINRTIPPVKQALKDADIEPEDIDEVILVGGMTRMPKIRSVVKDLFGKSPNSSVNPDETVALGAAIQGGILSGEIKNVLLLDVTPLTLGIETFGGAFSPLIPRNTT” stands “failed”.

“MLKSILKVAVISTIGLSTVACTVNDQRIARYGVGGAAIGALAGTAIAGSTPEAALTGAAVGAIAGSVTGAAVNQQRQQRQRQQRQIVAPHPAMCTYRNRKGQVYSAPCAQKVQTPQLCTYRDGRGVMYQAPCPQRVR”: the protein production entry was “failed”.

As for “MLKSVNLPVCHSLRNHLAVSSISTTPPSLIIPLLSPIFLRISSSSSNSVILNFSVKASFLVSKILLINLRAGFTGSLILSAGKPPFITSSSKSSIGTTPGVSKSQIFLVSLIICLPFVYPGIGAVPTECFPLSTFIIVLFPTFGYPINATLTLSLLIIFAIFFSSLLRIPVPFLSLAEIKTTGISLFLLYSSAHSLGTKSALFITNKSFLPLSKTILSSFLFLVPMGSLASTTSTTMSASSITSFTIAQAFFCFIPHHRYFKDYGTPWGIRGARVGTLDVGLILGSKPYFFWLHAFSERYYVG”, the protein production entry is “failed”. On to “MLKVAIAEDDFRVAQIQEEFLLKIKDVKVMGKALNAKETMELLQREEIDLLLLDNYLPDGIGTDLLPQIHAEFPNVDVIMVTAANENHMLEKAIRNGVSNYLIKPVTLEKFVRTIEDYKRKKQLLHNNNEVNQTLIDNFFGISQTQDIKNLPTGVDPLTLQKVKGIIKGFEEGITIEEMGEQMGASRTTARRYLEYLVATNECTVEYTYGIIGRPERKYRIGRGL”, for which the protein production entry is recorded as “failed”. Under “MLKVLFVPLNRNYVFDYIDDWKNIVADSLSRAGLSSEILIWPSTIKPSMKCFNWARKQYLAPCIIENMGNMFYDYLNEYFIVGIGYIDGYDYGLNFVFGEASPINRIAVVFTRRLDPRFYGEEPNYNLYLERVAKEIVHELGHLLGLSHCKRRTCVMSFSNSVYEVDAKTRFFCETCSNTLRKLNVLEHHHHHH” stands “failed”. Under “MLKYQQIATEIETYIEEHQLQQGDKLPVLETLMAQFEVSKSTITKSLELLEQKGAIFQVRGSGIFVRKHKRKGYISLLSNQGFKKDLEDFNVTSKVIELDVRKPTPEAAENLNIGMDEDIYYVKRVRYINGQTLCYEESYYTKSIVTYLNNEIVSHSIFHYIREGLGLKIGFSDLFLHVGQLNEEEAEYLGLEAGLPKLYIESIFHLTNGQPFDYSKISYNYEQSQFVVQANSFLL” stands “not failed”.
